{"source": "paper doi:10.1101/529222", "about": "(bioRxiv, 2019)", "target": "GST-EVH1 domain of VASP (UniProt P70460 1-113)", "sequence (P70460 1-113)": "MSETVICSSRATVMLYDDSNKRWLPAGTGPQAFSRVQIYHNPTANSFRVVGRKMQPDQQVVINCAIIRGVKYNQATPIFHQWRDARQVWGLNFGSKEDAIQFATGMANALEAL", "test": "pull-down"}
{"binder": "endogenous TRIM9 (natural protein, mouse (endogenous in E15.5 cortex), UniProt Q8C7M3 1-817, looked up) MEEMEEELKCPVCGSFYREPIILPCSHNLCQACARNILVQTPESESPQSRRASGSGVSDYDYLDLDKMSLYSEADSGYGSYGGFASAPTTPCQKSPNGVRVFPPAMPPPPTHLSPALAPVPRNSCITCPQCHRSLILDDRGLRGFPKNRVLEGVIDRYQQSKAAALKCQLCEKAPKEATVMCEQCDVFYCDPCRLRCHPPRGPLAKHRLVPPAQGRVSRRLSPRKVSTCTDHELENHSMYCVQCKMPVCYQCLEEGKHSSHEVKALGAMWKLHKSQLSQALNGLSDRAKEAKEFLVQLRTMVQQIQENSVEFEACLVAQCDALIDALNRRKAQLLARVNKEHEHKLKVVRDQISHCTVKLRQTTGLMEYCLEVIKENDPSGFLQISDALIRRVHLTEDQWGKGTLTPRMTTDFDLSLDNSPLLQSIHQLDFVQVKASSPVPATPILQLEECCTHNNSATLSWKQPPLSTVAADGYILELDDGSGGQFREVYVGKETMCTVDGLHFNSTYNARVKAFNKTGVSPYSKTLVLQTSEAAGAHETKPMKDTDSEEQTLPFPVPSERLPLRRMSPFSSTLNLQPSFPGRSYFDFRSSPHQLSLHSSLQSLNAPGCNFETQSASYSQLVDIKKLLAVAWFAFDPGSAHSDIIFSNDNLTVTCSSYDDRVVLGKTGFSKGVHYWELTIDRYDNHPDPAFGVARIDVMKDMMLGKDDKAWAMYVDNNRSWFMHNNSHTNRTEGGITKGATIGVLLDLNRKTLTFFVNNEQQGPIAFENVEGLFFPAVSLNRNVQVSLWAPGLRACSGCYFKVCPGAVKSPQAPAP", "values": [{"measurement": "fold change of TRIM9 precipitated, Trim67-/- lysate against wild-type lysate", "result": "~2", "unit": "fold"}]}
